Measured values published in US20050090648A1 (Eli Lilly, published 2005).

How the values were obtained:
β-amyloid peptide (1-42) [1] = biological target: T1, β-amyloid peptide (1-42) (UniProt P05067 672-713); experiment: competitive ELISA on coated β-amyloid peptide (1-42); competitor against biotinylated Mu3D6 (0.2 µg/ml); first set of three experiments
T1 construct: domain: β-amyloid peptide (1-42); Numbers 1-42 count on the Aβ peptide, not on the APP precursor entry; also called Aβ 1-42; Amyloid-beta 1-42
Experimental: (§1) After washing the wells with phosphate buffered saline (PBS) containing 0.1% Tween 20 (Washing Buffer) using an ELISA plate washer, the wells were blocked by adding 300 μL of SuperBlock reagent (Pierce) per well. After 30 minutes of blocking, the wells were washed with Washing Buffer and excess liquid was removed.
(§2) As a background control, 100 μl of ELISA Buffer was added. The ELISA plate was incubated at room temperature for 90 min. […] The plate was incubated at room temperature for 30 min and washed with Washing Buffer. For color development, 100 μl/well of ABTS Peroxidase Substrate (Kirkegaard & Perry Laboratories) was added. Color development was stopped by adding 100 μl/well of 2% oxalic acid. […] The absorbances were plotted against the log of the competitor concentration, curves were fit to the data points (using Prism) and the IC50 was determined for each antibody using methods well-known in the art.

β-amyloid peptide (1-42) [2] = biological target: T1, β-amyloid peptide (1-42); experiment: competitive ELISA on coated β-amyloid peptide (1-42); competitor against biotinylated Mu3D6; second set of three experiments
Experimental: as §1, §2

Human Aβ fragment 10-20 = biological target: T2, Human Aβ fragment 10-20 (human, UniProt P05067 681-691); experiment: BIAcore, single concentration of fragment
T2 construct: domain: Aβ fragment 10-20; Numbers count on the Aβ peptide; also called human amyloid beta 10-20
T2 peptide (looked up): YEVHHQKLVFF
Text: (§3) All dilutions were made with HEPES buffered saline containing Tween 20. A single concentration of a variety of fragments of human Aβ or mouse Aβ 1-40 (BioSource International) was used.

Human Aβ fragment 16-25 = biological target: T3, Human Aβ fragment 16-25 (human, UniProt P05067 687-696); experiment: BIAcore, single concentration of fragment
T3 construct: domain: Aβ fragment 16-25; Numbers count on the Aβ peptide; also called human amyloid beta 16-25
T3 peptide (looked up): KLVFFAEDVG
Text: as §3

β-amyloid peptide (1-42) [3] = biological target: T1, β-amyloid peptide (1-42); experiment: BIAcore 2000, antibody captured by anti-IgG on CM5 chip, Aβ flowed over
Experimental: Antibody affinity (KD=Kd/Ka) was determined using a BIAcore biosensor 2000 and data analyzed with BIAevaluation (v. 3.1) software. A capture antibody (rabbit anti-mouse or anti-human IgG) was coupled via free amine groups to carboxyl groups on flow cell 2 of a biosensor chip (CM5) using N-ethyl-N-dimethylaminopropyl carbodiimide and N-hydroxysuccinimide (EDC/NHS). A non-specific rabbit IgG was coupled to flow cell 1 as a background control. Monoclonal antibodies were captured to yield 300 resonance units (RU). […] To regenerate the chip, bound anti-Aβ antibody was eluted from the chip using a wash with glycine-HCl (pH 2). A control injection containing no amyloid-beta served as a control for baseline subtraction.

Mouse Aβ 1-40 = biological target: T4, Mouse Aβ 1-40 (mouse, UniProt P12023 672-711); experiment: BIAcore, single concentration of peptide
T4 construct: domain: Aβ 1-40; Numbers count on the Aβ peptide
T4 peptide (looked up): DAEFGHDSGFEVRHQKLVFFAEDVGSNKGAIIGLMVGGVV
Text: as §3

T1 sequence (P05067 672-713 limits assumed): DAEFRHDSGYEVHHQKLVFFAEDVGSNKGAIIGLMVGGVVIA

B1: Humanized 3D6 antibody (antibody, human IgG1, kappa, V domains shown)
VH: EVQLVESGGGLVQPGGSLRLSCAGSGFTFSNYGMSWVRQAPGKGLEWVASIRSGGGRTYYSDNVKGRFTISRENAKNSLYLQMNSLRAEDTAVYYCVRYDHYSGSSDYWGQGTLVTVSS
VL: DVVMTQSPLSLPVTLGQPASISCKSSQSLLDSDGKTYLNWLQQRPGQSPRRLIYLVSKLDSGVPDRFSGSGSGTDFTLKISRVEAEDVGVYYCWQGTHFPRTFGGGTKVEIKR
notes: Expressed from pVk-Hu3D6 and pVg1-Hu3D6 in Sp2/0 (human kappa, gamma 1); also called Hu3D6
- IC50 (β-amyloid peptide (1-42) [1]): 3.3 µg/mL
- IC50 (β-amyloid peptide (1-42) [2]): 3.97 µg/mL
- binding result (Human Aβ fragment 10-20): no binding
- binding result (Human Aβ fragment 16-25): no binding
- Kd (β-amyloid peptide (1-42) [3]): 2.3 nM
- binding result (Mouse Aβ 1-40): no binding
